Experimental data: US20210347873A1 (SHANGHAI PHARMAEXPLORER, published 2021)
Substitutions are numbered along the chain they refer to.

T1: human APRIL protein (human, UniProt O75888 105-250, limits assumed)
T1 construct: Bought protein; also called recombinant APRIL protein
T1 sequence (looked up): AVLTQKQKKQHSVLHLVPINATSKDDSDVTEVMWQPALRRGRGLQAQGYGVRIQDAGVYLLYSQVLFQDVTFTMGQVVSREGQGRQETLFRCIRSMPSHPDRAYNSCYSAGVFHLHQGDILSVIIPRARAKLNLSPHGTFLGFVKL

B1: 8E7D9C7F5 (antibody, V domains shown)
VH: QVQLQQSGVELARPGASVKLSCKASGYTFTSYGISWVKQRTGQALEWIGEIYPRSGNTYYNEKFKGKATLTADKSSSTAYMELRSLTSEDSAVYFCARSGPITTLVATDYGMDYWGQGTSVTVSS
VL: DIVLTQSPASLAVSLGQRATISCRASKSVSTSSYSYMHWYQQKPGQPPKLLIKFASNLESGVPARFSGSGSGTDFTLNIHPVEEEDAATYYCQHSREFPYTFGGGTKLEIK
B2: 20D1B6E9E5 (antibody, V domains shown)
VH: EVQLQQSVAELVRPGASVKLSCTASDFNIKNTYIHWVKQRPEQGLEWIGRIDPVNGNTKYAPKFQDKATIIVDTYSNTAYLQLSSLASEDTAVYYCARWPITTIVATDWYFDVWGTGTTVTVSS
VL: DVLMTQTQLALPVRLGEQASISCRSSQSIVNSNGNTYLEWYLQKPGQSPKLLIYKVSNRFSGVPDRFSGSGSGTDFTLKISRVEAEDLGVYYCFQGSHVPWTFGGGTKLEIK
B3: 93C6F10D3 (antibody, V domains shown)
VH: EVQLVESGGGLVTPGGSLKLSCVASGFAFSTYGMSWVRQTPERRLEWVAYISGGGGSIYYPDSVKGRFTISRDNAKNILYLQMSSLKSEDTAMYHCTRHPDLLLRYDYALDHWGQGTSVTVSS
VL: DIQMTQSPASLSASVGETVTITCRASENIHIYLAWYQQKQGKSPQLLVYNGKTLADGVPSRFSGSGSGTQYSLKINTLQPEDFGNYYCQHFWNSTWTFGGGTKLEIK
B4: mouse-human chimeric BLyS antibody c8E7D9C7F5 (antibody, human IgG1, V domains shown)
VH: B1 VH
VL: B1 VL
B5: humanized BLyS antibody h97A3C2H4-9 (antibody, human IgG1, V domains shown)
VH: EVQLVESGGGLVQPGGSLRLSCAASGFTFSTYTMSWVRQAPGKRLEWVAYISYGGGSTSYPDTVKGRFTISRDNAKNSLYLQMNSLRAEDTAVYYCTRHVTVVENSMDYWGQGTTVTVSS
VL: DILLTQSPDFQSVTPKEKVTITCRASQSIGTSIHWYQQKTDQSPKLLIKYVSESFSGTPSRFSGSGSGTDFTLTINSLEAEDAATYYCQQTHSWPWTFGGGTKVEIK
B6: mouse-human chimeric BLyS antibody c97A3C2H4 (antibody, human IgG1, V domains shown)
VH: B5 VH with Q3K, R19K, A40T, G42E, S78T, N84S, R87K, A88S, V93I, T115S
VL: DILLTQSPDILSVSPGERVSFSCRASQSIGTSIHWYQQRTNGSPRLLIKYVSESFSGTPSRFSGSGSGTAFTLTINSVESEDIADYYCQQTHSWPWTFGGGTKLEIK
B7: humanized BLyS antibody h8E7D9C7F5-1 (antibody, human IgG1, V domains shown)
VH: EVQLVQSGAEVKKPGASVKVSCKASGYTFTSYGISWVRQAPGQGLEWMGEIYPRSGNTYYNEKFKGRVTMTTDTSTSTAYMELRSLRSDDTAVYYCARSGPITTLVATDYGMDYWGQGTTVTVSS
VL: DIVMTQSPDSLAVSLGERATINCRASKSVSTSSYSYMHWYQQKPGQPPKLLIKFASNLESGVPDRFSGSGSGTDFTLTISSLQAEDVAVYYCQHSREFPYTFGGGTKVEIK
B8: c97E7B3F2 (antibody, V domains shown)
VH: EVQLQQSGPELVKSGASVKISCKASGYTFTDHKMHWVKQSHGKSLEWIGYISPYNGGTGYNQKFKSKVTLTVDISSSTAYMELRSLTSEDSAVYYCARWGFYDVMDSWGQGTSVTVSS
VL: DVLLTQTPLSLPVSLGDQASISCRSSQTIVHIIGDTYLEWYLQKPGQSPKLLIYKVSNRFSGVPDRFSGSGAGTDFTLKISRVEAEDLGVYYCFQGSHVPRTFGGGTKLEIK
B9: c20D1B6E9E5 (antibody, V domains shown)
VH: B2 VH
VL: B2 VL
B10: c89A2G5E7 (antibody, V domains shown)
VH: QVQLKESGPGLVAPSQSLSITCTVSGLSLNSHDISWIRQPPGKGLEWLGVIWSGGGTKYNSAFMSRLSISKDNSKSQVFLKMNSLHTDDTAIYYCVRTPSMITYSAMDYWGQGTSVTVSS
VL: EIVLTQSPALMAASPGEKVTITCSVSSSISSRNLHWYQQKSQTSPKAWIHATSNLASGVPVRFSGSGSGTSYSLTISSMEAEDAATYYCQQWSSYPLTFGSGTKLEIK

Molecular target: T1, human APRIL protein
Assay: ELISA, coated APRIL; antibody 2.67 nM
Description: (§1) To test whether the BLyS antibody cross-reacted with human APRIL protein, APRIL protein (purchased from R & D Systems) was first diluted to a final concentration of 1.0 μg/mL with PBS, and then 50 μL of which per well was aliquoted into a 96-well ELISA plate, and the plate was subsequently sealed with plastic film and incubated at 4° C. overnight. On the next day the plate was rinsed four times with the plate washing buffer [PBS buffer containing 0.0500 (v/v) Tween20] and a blocking solution [PBS buffer containing 0.05 (v/v) Tween20 and 1 (w/w) BSA] was added, then the protein was blocked at 37° C. for 2 hours. The blocking solution was removed and 100 μL per well of the lead antibodies prepared in Embodiment 1 and 2 were added in. After incubation for 1 hour at 37° C., the plate was rinsed four times with the plate washing buffer [PBS buffer containing 0.05 (v/v) Tween20]. HRP-labeled (horseradish peroxidase) secondary antibody (purchased from Sigma) was added in and incubated at 37° C. for 1 hour. The plate was then rinsed four times with the plate washing buffer [PBS buffer containing 0.050 (v/v) Tween20]. 100 μL of TMB substrate was aliquoted into each well and after incubation at room temperature for 5 minutes, 100 μL of stop solution (1.0 N HCl) was aliquoted into each well. A₄₅₀ₙₘ values were read via an ELISA plate reader (SpectraMax M5e purchased from Molecular Devices) and the results were shown in FIGS. 6A-6B and Table 11. […] As used herein, the IgG control is human IgG and the data in the table is GD number at 450 nm.

Binder | OD450 nm
B1 | 0.0703
B2 | 0.0775
B3 | 0.0746

Molecular target: T1, human APRIL protein
Assay: ELISA, coated APRIL; antibody 0.0213 nM
Description: as §1

Binder | OD450 nm
B1 | 0.0565
B2 | 0.0546
B3 | 0.0568

Molecular target: T1, human APRIL protein
Assay: ELISA, coated APRIL; antibody 66.7 nM
Description: as §1

Binder | OD450 nm
B1 | 0.464
B2 | 0.942
B3 | 0.57

Molecular target: T1, human APRIL protein
Assay: ELISA, coated APRIL; antibody 13.3 nM
Description: as §1

Binder | OD450 nm
B1 | 0.116
B2 | 0.257
B3 | 0.171

Molecular target: His-tagged extracellular domain of human BLyS protein (hBLyS-ECD), Ala134-Leu285 (human, UniProt Q9Y275 134-285)
Assay: cell-based or functional assay

Binder | mouse B lymphocyte proliferation stimulated by hBLyS-ECD (viable cell signal) at 0 nM antibody | mouse B lymphocyte proliferation stimulated by hBLyS-ECD (viable cell signal) at 0.000256 nM antibody | mouse B lymphocyte proliferation stimulated by hBLyS-ECD (viable cell signal) at 0.00128 nM antibody | mouse B lymphocyte proliferation stimulated by hBLyS-ECD (viable cell signal) at 0.0064 nM antibody | mouse B lymphocyte proliferation stimulated by hBLyS-ECD (viable cell signal) at 0.032 nM antibody | mouse B lymphocyte proliferation stimulated by hBLyS-ECD (viable cell signal) at 0.16 nM antibody | mouse B lymphocyte proliferation stimulated by hBLyS-ECD (viable cell signal) at 0.8 nM antibody | mouse B lymphocyte proliferation stimulated by hBLyS-ECD (viable cell signal) at 4 nM antibody | mouse B lymphocyte proliferation stimulated by hBLyS-ECD (viable cell signal) at 20 nM antibody | mouse B lymphocyte proliferation stimulated by hBLyS-ECD (viable cell signal) at 100 nM antibody
B4 | 3640 OD450 nm (as headed) | 3310 OD450 nm (as headed) | 3360 OD450 nm (as headed) | 3020 OD450 nm (as headed) | 2950 OD450 nm (as headed) | 3200 OD450 nm (as headed) | 408 OD450 nm (as headed) | 187 OD450 nm (as headed) | 187 OD450 nm (as headed) | 116 OD450 nm (as headed)
B5 | 3590 OD450 nm (as headed) | 3080 OD450 nm (as headed) | 3540 OD450 nm (as headed) | 2970 OD450 nm (as headed) | 2960 OD450 nm (as headed) | 2770 OD450 nm (as headed) | 1110 OD450 nm (as headed) | 217 OD450 nm (as headed) | 137 OD450 nm (as headed) | 127 OD450 nm (as headed)
B6 | 3450 OD450 nm (as headed) | 3110 OD450 nm (as headed) | 2900 OD450 nm (as headed) | 3050 OD450 nm (as headed) | 2960 OD450 nm (as headed) | 2890 OD450 nm (as headed) | 429 OD450 nm (as headed) | 223 OD450 nm (as headed) | 159 OD450 nm (as headed) | 169 OD450 nm (as headed)
B7 | 3480 OD450 nm (as headed) | 3000 OD450 nm (as headed) | 3120 OD450 nm (as headed) | 3200 OD450 nm (as headed) | 2970 OD450 nm (as headed) | 2730 OD450 nm (as headed) | 951 OD450 nm (as headed) | 209 OD450 nm (as headed) | 152 OD450 nm (as headed) | 131 OD450 nm (as headed)

Molecular target: T1, human APRIL protein
Assay: ELISA, coated APRIL; antibody 0.00427 nM
Description: as §1

Binder | OD450 nm
B1 | 0.0571
B2 | 0.0535
B3 | 0.0546

Molecular target: T1, human APRIL protein
Assay: ELISA, coated APRIL; antibody 0 nM (blank)
Description: as §1

Binder | OD450 nm
B1 | 0.0551
B2 | 0.055
B3 | 0.0568

Molecular target: T1, human APRIL protein
Assay: ELISA, coated APRIL; antibody 0.107 nM
Description: as §1

Binder | OD450 nm
B1 | 0.0558
B2 | 0.0543
B3 | 0.0551

Molecular target: T1, human APRIL protein
Assay: ELISA, coated APRIL; antibody 0.534 nM
Description: as §1

Binder | OD450 nm
B1 | 0.0599
B2 | 0.0611
B3 | 0.0584

Molecular target: T2, extracellular domain of human BLyS protein (hBLyS-ECD), His-tagged, Ala134-Leu285 (human, UniProt Q9Y275 134-285)
T2 construct: Expressed in HEK293 cells and purified on a Ni column; also called immunogen
T2 sequence (Q9Y275 134-285): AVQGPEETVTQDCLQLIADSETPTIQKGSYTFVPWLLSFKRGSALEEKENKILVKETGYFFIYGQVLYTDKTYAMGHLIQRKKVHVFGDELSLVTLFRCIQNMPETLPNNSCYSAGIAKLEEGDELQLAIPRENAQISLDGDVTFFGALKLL
Assay: SPR (Biacore), antibody captured by anti-human Fc, hBLyS-ECD as analyte

Binder | Kd [nM] | koff [s⁻¹] | kon [M⁻¹ s⁻¹]
B8 | 0.147 | 4.89e-05 | 334000
B9 | 0.642 | 0.000211 | 329000
B10 | 0.0857 | 1.82e-05 | 213000
